# Test results taken from patent US20220380801A1, “TRIPARTITE SYSTEMS FOR PROTEIN DIMERIZATION AND METHODS OF USE” (priority 2019, published 2022).
# Like-named read-outs stand apart in the source and are kept apart here.
# How the values were obtained:
# [1] = tested on: luciferase reporter gene in HEK293 cells; experiment: Transcriptional regulation assay (split transcription factor), luciferase reporter; type: cell-based, human; settings: one copy; for EC50: simeprevir dose-response
# Text: The iDimerize regulated transcription system (Takara) was used to test the ability of PRSIM-based CIDs to regulate gene expression. […] The DBD and AD are separately fused to the two protein components of a CID such that, only in the presence of the small molecule inducer, the AD is brought into close proximity to the DBD, recruiting the transcription machinery to a promoter harbouring the DBD recognition sites. The iDimerize regulated transcription system (Takara) provides two vectors, pHet-Act1-2 and pZFHD1-Luciferase. The pHet-Act1-2 vector encodes two fusion proteins that represent a positive control: one is a fusion between FRB (T82L mutant; DmrC) and an activation domain (AD) from human p65 (SEQ ID NO: 42); the other is a fusion protein comprised of a DNA binding domain (ZFHD1) (SEQ ID NO: 43) fused to three tandem copies of FKBP12 (DmrA). These sequences are preceded by a CMV promoter and separated by an internal ribosome entry site (IRES). The ZFHD1 vector encodes luciferase preceded by an inducible promoter consisting of 12 copies of the recognition sequence of the ZFHD1 DBD upstream of a minimal IL-2 promoter. Binding of the DBD to its recognition sequence and recruitment of the transcriptional machinery by the AD initiates transcription of the luciferase reporter gene. The DNA sequence encoding HCV NS3/4A PR (S139A) was purchased as a DNA string from GeneArt and cloned into the pHet-Act1-2 vector as either an N-terminal fusion partner to the activation domain (SEQ ID NO: 44) (replacing FRB) or as a C-terminal fusion partner to the DNA binding domain (SEQ ID NO: 45) (replacing FKBP12) with flexible linkers (TGGGGSGGGGS (SEQ ID NO: 185) and SA, respectively) between the fusion partners. Subsequently, sequences encoding one copy of a panel of 12 PRSIM molecules (Table 2) were purchased as DNA strings from GeneArt and were cloned using Gibson assembly into the HCV NS3/4A PR (S139A)-containing pHetAct1-2 constructs described above, as a fusion partner to either the DBD (SEQ ID NOS: 46-56) or AD (SEQ ID NOS: 57-67), respectively. An equivalent construct was generated to replace the three copies of FKBP12 in pHet-Act1-2 with a single copy of FKBP12. The sequence of the constructs encoding both activation domain and DNA-binding domain fusion proteins was confirmed by Sanger sequencing of the entire coding region.
# Sequences encoding the three HCV NS3/4A PR (S139A) mutants (Table 6) were purchased as DNA strings from GeneArt and were cloned using Gibson assembly into the pHetAct1-2 HCV NS3/4A PR (S139A)-PRSIM_23 (3 tandem copy) construct described above as a fusion partner to the AD (SEQ ID NOs: 211-216).
# All transcriptional regulation assays were performed in adherent HEK293 cells cultured in 384-well plates. Cells enzymatically dissociated from a tissue culture flask were counted and plated at 7.5×10^3 cells/well in a 384-well plate. The plates were incubated overnight at 37° C. with 5% CO2 to allow the cells to adhere. On day 2, the cells were co-transfected with a pHet-Act1-2 plasmid (containing the FRB:FKBP12 control fusion proteins (Clontech) or the HCV NS3/4A PR (S139A):PRSIM fusion proteins) and a pZFHD1 plasmid (encoding either luciferase (Clontech) or NanoLuc-PEST (as described above)) using Lipofectamine LTX (ThermoFisher). On day 3, wells were treated with different concentrations of either A/C heterodimeriser (for the FRB:FKBP12 control), simeprevir or with vehicle control, and 24 hours later luminescence was quantified with an Envision plate reader immediately following addition of SteadyGlo luciferase substrate (Promega) or Nano-Glo Vivazine luciferase substrate (Promega). Alternatively, reverse transfections were carried out on Day 1, addition of dimeriser on Day 2 and luminescence quantified 24 hours later on Day 3.
# Luminescence readings were converted into fold-change by dividing the signal in the presence of simeprevir by that in the absence of simeprevir.
# [2] = tested on: split Nanoluciferase (LgBiT/SmBiT) reconstitution in HEK293 cells; experiment: Split NanoLuc reconstitution assay (NanoBiT); type: cell-based, human; settings: 100 nM simeprevir over no simeprevir; LgBiT fused to the C-terminus of the PRSIM binding module
# Experimental: The ability of the PRSIM binding molecules to promote dimerization of two proteins to which they are fused was assessed with the NanoBiT system (Promega) that measures the reconstitution of a split Nanoluciferase (NanoLuc) and the resultant luminescence upon supply of a live cell imaging Nano-Glo NanoLuc substrate (FIG. 8). In the NanoBiT system, one interaction partner is fused via a flexible linker to an 18 kDa fragment of NanoLuc termed LgBiT (for “large bit”) (SEQ ID NO: 16) and the other is fused via an equivalent linker to a 1.3 kDa peptide SmBiT (“small bit”) (SEQ ID NO: 17). LgBit and SmBiT have a low affinity (190 μM) for each other in the absence of interacting partners and will not reconstitute to form an active luciferase enzyme. Once fused to the interacting proteins of a CID and supplied with inducer, they will reconstitute, and luminescence can be measured. The NanoBiT system supplies two sets of control proteins fused to LgBiT and SmBiT: a set of constitutively interacting proteins PRKAR2A:PRKACA; and the FRB:FKBP12 pair whose dimerization can be induced with rapamycin.
# To establish the optimal orientation of the HCV NS3/4A PR (S139A) and PRSIM components, constructs whereby HCV NS3/4A PR (S139A) was fused at either the N- or C-terminus to SmBiT (SEQ ID NOs: 18 and 19, respectively) and a parallel set of constructs for each PRSIM binding module fused to either the N- or C-terminus of LgBiT (SEQ ID NOS: 20-30 and 31-41, respectively). The NanoBiT kit (Promega) supplies a set of vectors enabling these constructs to be generated. DNA strings encoding HCV NS3/4A PR (S139A) and the PRSIM molecules were purchased from GeneArt and amplified via PCR with primers with extensions containing restriction sites compatible with the NanoBiT vectors and were cloned via Gibson assembly. All constructs were verified via Sanger sequencing of the entire coding sequence.
# All NanoBiT screens were performed in adherent HEK293 cells cultured in 96-well plates. Cells enzymatically dissociated from a tissue culture flask were counted and plated at 2×10^4 cells/well in a white, opaque-bottomed 96-well plate (Costar 3917). The plates were incubated overnight at 37° C. with 5% CO2 to allow the cells to adhere. On day 2, plasmids were co-transfected with Lipofectamine LTX (ThermoFisher) at a final concentration of 100 ng/well (50 ng/plasmid, one encoding a SmBiT fusion, the other a LgBiT fusion). On day 3, wells were treated with 100 nM of the appropriate small molecule inducer (rapamycin (FRB:FKBP12) or simeprevir (HCV NS3/4A PR:PRSIM)) or vehicle control, and luminescence was quantified with an Envision plate reader immediately following addition of Nano-Glo Live Cell Substrate (Promega).
# HCV NS3/4A PR (S139A) [3] = target: T1, HCV NS3/4A PR (S139A) (Hepatitis C virus subtype 1a, UniProt A8DG50, A1066T/I1043Q/I1044E/L1039E/L1040E/L1047Q/S1165A, form not given); experiment: Biacore 8K binding kinetics of PRSIM binding molecules; settings: 10 nM simeprevir present
# Experimental: The scFv and Tn3 PRSIM binding molecules were covalently immobilised to a CM5 chip surface using standard amine coupling techniques at a concentration of 1 μg/ml in 10 mM sodium acetate pH 4.5.
# (§1) The HCV NS3/4A PR (S139A), or BSA control, was diluted 1:4 (1.25-20 nM)±10 nM simeprevir in 10 mM Hepes pH 7.4, 150 mM NaCl, 0.05% Surfactant P20, 0.01% DMSO, ensuring constant simeprevir and DMSO concentration. The samples were flowed over the chip at 50 μl/min using single cycle kinetics, with 120 sec association and 600 sec dissociation. The chip surface was regenerated with two 20 sec pulses of 10 mM Glycine-HCl pH 3.0. The final sensorgrams were analysed using the Biacore 8K Evaluation Software and the affinity constant KD was determined using a 1:1 binding model. The same method was used for measuring the affinity of the HCV NS3/4A PR mutants for PRSIM_23 with minor deviations. The mutants were diluted 1:4 (2.5-40 nM)±simeprevir in 10 mM Hepes pH 7.4, 150 mM NaCl, 0.05% Surfactant P20, 0.08% DMSO, ensuring constant simeprevir and DMSO concentration. The samples were flowed over the chip at 50 μl/min using single cycle kinetics, with 180 sec association and 600 sec dissociation.
# BSA = BSA (Bos taurus, UniProt P02769); experiment: Biacore 8K BSA control; type: binding; parameters: key: # = no binding; * = minimal non-specific binding; settings: 10 nM simeprevir present
# Experimental: as §1
# HCV NS3/4A PR (S139A) [4] = target: T1, HCV NS3/4A PR (S139A); experiment: HTRF binding screen; settings: in the presence of simeprevir
# Experimental: scFv and Tn3 PRSIM binding molecules that were selective for the HCV NS3/4A PR (S139A) were identified in homogeneous time-resolved fluorescence (HTRF®) assays run in parallel to measure binding in the presence and absence of simeprevir. HCV NS3/4A PR (S139A), and serial dilutions of purified PRSIM binding molecules, were prepared in assay buffer (PBS containing 0.4 M potassium fluoride and 0.1% BSA). Streptavidin cryptate (Cisbio) was pre-mixed with either anti-FLAG XL665 (to detect the Tn3 molecules) or anti-c-myc XL665 (to detect the scFv molecules) in assay buffer. For each assay 2.5 μl of sample titration was added to 2.5 μl HCV NS3/4A PR (S139A) and 2.5 μl of pre-mixed detection reagents. Either 2.5 μl simeprevir or 2.5 μl of a DMSO blank were also added to each well. Background was defined using wells with zero sample addition. Assay plates were incubated overnight at 4° C., prior to reading the time resolved fluorescence at 620 nm and 665 nm emission wavelengths using a PerkinElmer Envision plate reader. Data was analysed by calculating % Delta F values for each sample. Delta F was determined according to equation 1.
# % Delta F=((sample 665 nm/620 nm ratio value)−(background 665 nm/620 nm ratio value)/(background 665 nm/620 nm ratio value))×100 Equation 1
# Selective binding molecules are defined as those scFv and Tn3 PRSIM binding molecules that bind to HCV NS3/4A PR (S139A) in complex with simeprevir and no binding to HCV NS3/4A PR (S139A).
# [5] = PRSIM fused to DBD, read-out: EC50
# [6] = PRSIM fused to AD, read-out: EC50
Molecule,Max fold change ([1]; PRSIM fused to AD),EC50 ([1]; PRSIM fused to AD),Max fold change ([1]; PRSIM fused to DBD),"EC50 [1, 5]",fold-change in luminescence [2],Rmax (HCV NS3/4A PR (S139A) [3]),ka (HCV NS3/4A PR (S139A) [3]),kd (HCV NS3/4A PR (S139A) [3]),"EC50 [1, 6]",BSA control (BSA),HTRF max. signal (% delta F) (HCV NS3/4A PR (S139A) [4])
"PRSIM_01: scFv PRSIM binding molecule, SEQ ID NO: 10 (protein, PRSIM_01) scFv: QVQLVQSGAEVKKPGSSVKVSCKASGGTFSSYAISWVRQAPGQGLEWMGGIIPIFGTANYAQKFQGRVTITADESTSTAYMELSSLRSEDTAVYYCARGQGYITVFDYWGQGTLVTVSSGGGGSGGGGSGGGGSAQSVLTQPPSASGTPGQRVTISCSGSSSNIGSNTVNWYQQLPGTAPKLLIYSNNQRPSGVPDRFSGSKSGTSASLAISGLQSEDEADYYCAAWDHHWEQVVFGGGTKLTVL",5.83,Ambiguous,86.76,6.99 nM,16 fold,–,–,–,–,–,–
"PRSIM_32: Tn3 PRSIM binding molecule, SEQ ID NO: 6 (protein, PRSIM_32) RLDAPSQIEVKDVTDTTALITWWSPRYYYASISGFELTYGIKDVPGDRTTIKLDYASNDYSIGNLKPDTEYEVSLISWNYGDWRYSSSNPAKITFKTGL",2.2,–,65.77,29.3 nM,–,19.9 RUs,2.51 E+09 M^−1 s^−1,40.1 s⁻¹,12.3 nM,#,1955 % delta F
"PRSIM_36: Tn3 PRSIM binding molecule, SEQ ID NO: 8 (protein, PRSIM_36) RLDAPSQIEVKDVTDTTALITWSWPRDDDYDIWYFELTYGIKDVPGDRTTIKLLNYASPYSIGNLKPDTEYEVSLISVVPDTYGRGTSNPAKITFKTGL",33.74,–,73.3,5.66 nM,–,214.4 RUs,5.15e+06 M⁻¹ s⁻¹,0.0498 s⁻¹,3.54 nM,#,1440 % delta F
"PRSIM_47: Tn3 PRSIM binding molecule, SEQ ID NO: 9 (protein, PRSIM_47) RLDAPSQIEVKDVTDTTALITWSRPGVSIWYFELTYGIKDVPGDRTTIKLDYRSYYYSIGNLKPDTEYEVSLISGSYGLVGVRASNPAKITFKTGL",3.85,–,3,8.87 nM,–,9 RUs,1.32e+10 M⁻¹ s⁻¹,51.2 s⁻¹,6.15 nM,#,1367 % delta F
